Measured values from paper PMC7041945, “Misfolded proteins bind and activate death receptor 5 to trigger apoptosis during unresolved endoplasmic reticulum stress” (eLife, 2020).

Tested on: CHOP, BiP, and DR5 mRNA in HCT116 cells
Experiment: qPCR of UPR target transcripts (CHOP, BiP, DR5)
Format: cell-based, Homo sapiens
Settings: HCT116; for ERO1alpha (386+387) fold induction relative to empty traffo / ERO1alpha (386+387) avg. fold induction relative to empty traffo: melt curves for these primers showed two peaks; for GAPDH avg. fold induction relative to empty traffo / GAPDH fold induction relative to empty traffo: sheet Cq data 2; for GAPDH avg. fold induction relative to empty traffo / GFP avg. fold induction relative to empty traffo / ERO1alpha (386+387) avg. fold induction relative to empty traffo: mean of 3 replicates
Procedure: Cells were grown in 6-well plates and harvested with 0.5 ml of TRIzol reagent (Life Technologies) per manufacturer’s protocol to extract RNA. For cDNA synthesis, 500 ng of total RNA was reverse transcribed with 2 μl of the SuperScript VILO master mix (Life Technologies # 11755050) in a total reaction volume of 10 μl following the manufacturer’s protocol for reaction temperature and duration. The reverse transcription product was diluted to 200 μl with 10 mM Tris-HCl pH 8.2 and used at 1:100 dilution for subsequent RT-PCR reactions.
PCR samples were prepared as described by manufacturer’s protocols from iQ SYBR Green Supermix (BioRad #17088800).
For each experiment, qRT-PCR reactions were set up in triplicate and run using a CFX96 Real Time System (Bio-Rad). Quantitation cycles were determined with CFX Manager 3.0 software (Bio-Rad) and then normalized to GAPDH as an internal control.

B1: pRK CHOP (protein, UniProt P35638 1-169, looked up)
DNA damage-inducible …: MAAESLPFSFGTLSSWELEAWYEDLQEVLSSDENGGTYVSPPGNEEEESKIFTTLDPASLAWLTEEEPEPAEVTSTSQSPHSPDSSQSSLAQEEEEEDQGRTRKRKQSGHSPARAGKQRMKEKEQENERKVAQLAEENERLKQEIERLTREVEATRRALIDRMVNLHQA
modifications: expression plasmid
ERO1alpha (386+387) fold induction relative to empty traffo (pRK CHOP 125 ng, replicate 1): 1.11 | ERO1alpha (386+387) fold induction relative to empty traffo (pRK CHOP 125 ng, replicate 2): 1.18 | ERO1alpha (386+387) fold induction relative to empty traffo (pRK CHOP 125 ng, replicate 3): 1.241 | GADD34 (388+389) fold induction relative to empty traffo (pRK CHOP 125 ng, replicate 1): 1.561 | GFP fold induction relative to empty traffo (pRK CHOP 125 ng, replicate 1): 9.5448 | GADD34 (388+389) fold induction relative to empty traffo (pRK CHOP 125 ng, replicate 2): 1.2889 | GFP fold induction relative to empty traffo (pRK CHOP 125 ng, replicate 2): 8.015 | GADD34 (388+389) fold induction relative to empty traffo (pRK CHOP 125 ng, replicate 3): 1.475 | GFP fold induction relative to empty traffo (pRK CHOP 125 ng, replicate 3): 7.683 | GAPDH avg. fold induction relative to empty traffo (pRK CHOP 125 ng): 1.018 | GAPDH fold induction relative to empty traffo (pRK CHOP 125 ng, replicate 1): 0.7828 | GAPDH fold induction relative to empty traffo (pRK CHOP 125 ng, replicate 2): 1.018 | GAPDH fold induction relative to empty traffo (pRK CHOP 125 ng, replicate 3): 1.254 | GFP avg. fold induction relative to empty traffo (pRK CHOP 250 ng): 2.186 | ERO1alpha (386+387) avg. fold induction relative to empty traffo (pRK CHOP 250 ng): 1.157 | ERO1alpha (386+387) fold induction relative to empty traffo (pRK CHOP 250 ng, replicate 1): 1.13 | ERO1alpha (386+387) fold induction relative to empty traffo (pRK CHOP 250 ng, replicate 2): 1.17 | ERO1alpha (386+387) fold induction relative to empty traffo (pRK CHOP 250 ng, replicate 3): 1.17 | GADD34 (388+389) fold induction relative to empty traffo (pRK CHOP 250 ng, replicate 1): 1.613 | GFP fold induction relative to empty traffo (pRK CHOP 250 ng, replicate 1): 2.374 | GADD34 (388+389) fold induction relative to empty traffo (pRK CHOP 250 ng, replicate 2): 1.727 | GFP fold induction relative to empty traffo (pRK CHOP 250 ng, replicate 2): 2.176 | GADD34 (388+389) fold induction relative to empty traffo (pRK CHOP 250 ng, replicate 3): 1.397 | GFP fold induction relative to empty traffo (pRK CHOP 250 ng, replicate 3): 2.009 | GAPDH avg. fold induction relative to empty traffo (pRK CHOP 250 ng): 1.005 | GAPDH fold induction relative to empty traffo (pRK CHOP 250 ng, replicate 1): 0.8675 | GAPDH fold induction relative to empty traffo (pRK CHOP 250 ng, replicate 2): 1.034 | GAPDH fold induction relative to empty traffo (pRK CHOP 250 ng, replicate 3): 1.114 | CHOP (qPCR CHOP, Sheet1) (pRK CHOP 500 ng, replicate 1): 1691.32 | DR5 (qPCR CHOP, Sheet1) (pRK CHOP 500 ng, replicate 1): 1.92 | GADD34 (qPCR CHOP, Sheet1) (pRK CHOP 500 ng, replicate 1): 1.469 | GAPDH (qPCR CHOP, Sheet1) (pRK CHOP 500 ng, replicate 1): 0.9688 | CHOP (qPCR CHOP, Sheet1) (pRK CHOP 500 ng, replicate 2): 1384.67 | DR5 (qPCR CHOP, Sheet1) (pRK CHOP 500 ng, replicate 2): 1.724 | GADD34 (qPCR CHOP, Sheet1) (pRK CHOP 500 ng, replicate 2): 1.35 | GAPDH (qPCR CHOP, Sheet1) (pRK CHOP 500 ng, replicate 2): 0.7886 | CHOP (qPCR CHOP, Sheet1) (pRK CHOP 500 ng, replicate 3): 1378.19 | DR5 (qPCR CHOP, Sheet1) (pRK CHOP 500 ng, replicate 3): 1.731 | GADD34 (qPCR CHOP, Sheet1) (pRK CHOP 500 ng, replicate 3): 1.457 | GAPDH (qPCR CHOP, Sheet1) (pRK CHOP 500 ng, replicate 3): 1.212 | GFP avg. fold induction relative to empty traffo (pRK CHOP 500 ng): 12.178 | ERO1alpha (386+387) avg. fold induction relative to empty traffo (pRK CHOP 500 ng): 1.425 | ERO1alpha (386+387) fold induction relative to empty traffo (pRK CHOP 500 ng, replicate 1): 1.469 | ERO1alpha (386+387) fold induction relative to empty traffo (pRK CHOP 500 ng, replicate 2): 1.35 | ERO1alpha (386+387) fold induction relative to empty traffo (pRK CHOP 500 ng, replicate 3): 1.457 | GADD34 (388+389) fold induction relative to empty traffo (pRK CHOP 500 ng, replicate 1): 2.321 | GFP fold induction relative to empty traffo (pRK CHOP 500 ng, replicate 1): 5.396 | GADD34 (388+389) fold induction relative to empty traffo (pRK CHOP 500 ng, replicate 2): 2.041 | GADD34 (388+389) fold induction relative to empty traffo (pRK CHOP 500 ng, replicate 3): 2.147 | GFP fold induction relative to empty traffo (pRK CHOP 500 ng, replicate 3): 5.386 | GAPDH avg. fold induction relative to empty traffo (pRK CHOP 500 ng): 1.044 | GAPDH fold induction relative to empty traffo (pRK CHOP 500 ng, replicate 1): 0.6526 | GAPDH fold induction relative to empty traffo (pRK CHOP 500 ng, replicate 2): 1.156 | GAPDH fold induction relative to empty traffo (pRK CHOP 500 ng, replicate 3): 1.324
